# In publication PMC1351370:
# Like-named read-outs stand apart in the source and are kept apart here.
# Columns and labels:
# [1] = molecular target: T1, HIV-1 nucleocapsid protein NC (wild type) (HIV-1 pNL4-3, UniProt P12493 378-432); assay: competition
# [2] = molecular target: T1, HIV-1 nucleocapsid protein NC (wild …); assay: tryptophan fluorescence quenching
# [3] = molecular target: T1, HIV-1 nucleocapsid protein NC (wild …); assay: competition; remark: listed apart in the source
# [4] = molecular target: T1, HIV-1 nucleocapsid protein NC (wild …); assay: tryptophan fluorescence quenching; remark: listed apart in the source
# [5] = molecular target: T1, HIV-1 nucleocapsid protein NC (wild …); assay: SPR
binder,measurement,setting,value
TGTGTGTGTGTGTGTGTGTG (ssDNA) [(TG)10],IC50,[1],0.037 ± 0.00273 µM
TGTGTGTG (ssDNA) [(TG)4],Kd,[2],0.0047 ± 0.00067 µM
same,IC50,[3],0.264 ± 0.101 µM
same,Kd,[4],0.0034 ± 7e-05 µM
AAAAAAAA (ssDNA) [(A)8],binding result,[5],no binding
AAAAAAAAAAAAAAAAAAAAAAAAAAAAAA (ssDNA) [(A)30],IC50,[1],6.68 ± 0.785 µM
